Measured values published in patent US20210332109A1.

How the values were obtained:
[1] = biological target: the antibody (of the immunochromatographic analysis device used in Test Example 8); experiment: competitive inhibition in the immunochromatographic sandwich on VZV gE recombinant protein, P2 added; row 0.5 ng/mL
[2] = biological target: the antibody (of the immunochromatographic analysis device used in Test Example 8); experiment: competitive inhibition in the immunochromatographic sandwich on VZV gE recombinant protein, P2 added; row 5 ng/mL
[3] = biological target: VZV gE recombinant protein (CalBioreagents, Inc.) (varicella-zoster virus) (UniProt P09259); experiment: immunochromatographic sandwich; row antibody gold-labelled, Antibody 18 on the detection line
[4] = biological target: VZV gE recombinant protein (CalBioreagents, Inc.) (varicella-zoster virus) (UniProt P09259); experiment: immunochromatographic sandwich; row antibody gold-labelled, Antibody 5 on the detection line
[5] = biological target: VZV gE recombinant protein (CalBioreagents, Inc.) (varicella-zoster virus) (UniProt P09259); experiment: immunochromatographic sandwich; row antibody gold-labelled, Antibody 3 on the detection line
[6] = biological target: VZV gE recombinant protein (CalBioreagents, Inc.) (varicella-zoster virus) (UniProt P09259); experiment: immunochromatographic sandwich; row antibody gold-labelled, Antibody 9 on the detection line
[7] = biological target: VZV gE recombinant protein (CalBioreagents, Inc.) (varicella-zoster virus) (UniProt P09259); experiment: immunochromatographic sandwich; row antibody gold-labelled, Antibody 4 on the detection line
[8] = biological target: VZV gE recombinant protein (CalBioreagents, Inc.) (varicella-zoster virus) (UniProt P09259); experiment: immunochromatographic sandwich; row antibody gold-labelled, Antibody 2 on the detection line
[9] = biological target: the antibody (of the immunochromatographic analysis device used in Test Example 8); experiment: competitive inhibition in the immunochromatographic sandwich on VZV gE recombinant protein, P4 added; row 0.5 ng/mL
[10] = biological target: the antibody (of the immunochromatographic analysis device used in Test Example 8); experiment: competitive inhibition in the immunochromatographic sandwich on VZV gE recombinant protein, P4 added; row 5 ng/mL
[11] = biological target: the antibody (of the immunochromatographic analysis device used in Test Example 8); experiment: competitive inhibition in the immunochromatographic sandwich on VZV gE recombinant protein, P3 added; row 5 ng/mL
[12] = biological target: the antibody (of the immunochromatographic analysis device used in Test Example 8); experiment: competitive inhibition in the immunochromatographic sandwich on VZV gE recombinant protein, P3 added; row 0.5 ng/mL
[13] = biological target: the antibody (of the immunochromatographic analysis device used in Test Example 8); experiment: competitive inhibition in the immunochromatographic sandwich on VZV gE recombinant protein, P1 added; row 0.5 ng/mL
[14] = biological target: the antibody (of the immunochromatographic analysis device used in Test Example 8); experiment: competitive inhibition in the immunochromatographic sandwich on VZV gE recombinant protein, P1 added; row 5 ng/mL

Sequence of VZV gE recombinant protein (CalBioreagents, Inc.) (varicella-zoster virus) (P09259 31-538 limits assumed): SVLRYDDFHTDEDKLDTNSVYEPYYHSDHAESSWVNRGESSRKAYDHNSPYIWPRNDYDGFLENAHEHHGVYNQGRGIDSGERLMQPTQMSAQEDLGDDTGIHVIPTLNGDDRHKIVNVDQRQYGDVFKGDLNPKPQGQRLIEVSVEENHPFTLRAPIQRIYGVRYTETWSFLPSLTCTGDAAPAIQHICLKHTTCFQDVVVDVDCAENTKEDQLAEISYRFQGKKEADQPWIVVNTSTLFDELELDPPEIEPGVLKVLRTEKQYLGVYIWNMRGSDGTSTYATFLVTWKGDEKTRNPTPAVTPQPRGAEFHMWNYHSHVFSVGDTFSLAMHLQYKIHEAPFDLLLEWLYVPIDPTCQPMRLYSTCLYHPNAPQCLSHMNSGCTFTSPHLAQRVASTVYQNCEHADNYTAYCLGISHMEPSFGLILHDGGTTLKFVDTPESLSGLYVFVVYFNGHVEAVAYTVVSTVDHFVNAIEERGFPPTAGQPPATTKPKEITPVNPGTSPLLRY

B1: Peptide 2 (peptide fragment composed of the amino acid sequence at positions 54 to 72 in the amino acid sequence of SEQ ID NO: 1) (peptide)
peptide: YYHSDHAESSWVNRGESSR
color development intensity [1]: 127 mAbs | color development intensity [2]: 697 mAbs

B2: Antibody 9 (antibody, V domains shown)
VH: EVQLEESGPELVKPGASVKIPCKASGYTFTDYNMDWVKQNHGKSLEWIGEINPENGGTIYNQTFKGKATLTVDKSSSTAYMELRSLTSEDTAVYYCARSPWFTYWGQGTLVTVSA
VL: DIVLTQTTASLSMAIGEIVTIRCITSTDIGDDMNWYQQKPGEPPKFLISEGNTLRPGVPSRFSSSGYGTDFVFTVENILSEDVADYYCLQSDNLPHVRLGDKVGNK
color development intensity [3]: 218 | color development intensity [4]: 52 | color development intensity [5]: 53 | color development intensity [6]: 29 | color development intensity [7]: 5 | color development intensity [8]: 39

B3: Peptide 4 (peptide fragment composed of the amino acid sequence at positions 69 to 88 in the amino acid sequence of SEQ ID NO: 1) (peptide)
peptide: ESSRKAYDHNSPYIWPRNDY
color development intensity [9]: 149 mAbs | color development intensity [10]: 596 mAbs

B4: Peptide 3 (peptide fragment composed of the amino acid sequence at positions 62 to 81 in the amino acid sequence of SEQ ID NO: 1) (peptide)
peptide: SSWVNRGESSRKAYDHNSPY
color development intensity [11]: 677 mAbs | color development intensity [12]: 128 mAbs

B5: Peptide 1 (peptide fragment composed of the amino acid sequence at positions 48 to 67 in the amino acid sequence of SEQ ID NO: 1) (peptide)
peptide: NSVYEPYYHSDHAESSWVNR
color development intensity [13]: 136 mAbs | color development intensity [14]: 726 mAbs
